According to US20240294623A1 (SCHOLAR ROCK, published 2024):

Columns and labels:
[1] = target: T1, hLTBP1-proTGFβ1 (human, UniProt Q14766 347-1721; P01137 30-390, limits assumed); assay: SPR (Biacore), Fab
T1 construct: Large latent complex (LLC): proTGFβ1 dimer disulfide-linked to one presenting molecule; recombinant, purified, biotinylated in BLI/SPR; The same id is used for the complex made by transfected cells in the reporter assays; also called human LTBP1-proTGFβ1 complex; LTBP1-ProTGFb1
Procedure: (§1) Surface plasmon resonance (SPR) was used to measure binding kinetics using a BIACORE® system. […] Experiments were carried out with eight types of LLCs, namely, hLTBP1-proTGFβ1, mLTBP1-proTGFβ1, hLTBP3-proTGFβ1, mLTBP3-proTGFβ1, hGARP-proTGFβ1, mGARP-proTGFβ1, hLRRC33-proTGFβ1 and mLRRC33-proTGFβ1.
(§2) In vitro binding kinetics (on/off rates) were measured in Biacore-based assays and affinities were determined against all four known LLCs using both human and murine counterparts for each. Based on the association rate and dissociation rate, KD was calculated for each. In addition, relative affinities, as compared to the reference antibody as a benchmark, were calculated and expressed as “fold difference” relative to the reference antibody.
(§3) A BIACORE® system was employed to determine the monovalent binding affinity and the kinetic parameters for antigen binding of test antibodies. The binding kinetics were evaluated by surface plasmon resonance using Biacore 8K (GE Healthcare). A Biotin CAP sensor chip was used to capture the biotinylated antigens. […] Multi-cycle kinetics was employed where each analyte concentration was injected in a separate cycle and the sensor chip surface was regenerated after each cycle. All the assays were carried out in freshly prepared 1×HBS-EP+buffer (10 mM HEPES, 150 mM NaCl, 3 mM EDTA, 0.05% Tween20, pH 7.4). Data for all the analyte concentrations for each interaction were fit globally to a 1:1 binding model to obtain the kinetic parameters. The Sensorgram for 0 nM analyte concentration was used as reference.

[2] = target: T2, hLTBP3-proTGFβ1 (human, UniProt Q9NS15 44-1303; P01137 30-390, limits assumed); assay: SPR (Biacore), Fab
T2 construct: LLC as m1; Same id used for the cell-made complex in reporter assays; also called human LTBP3-proTGFβ1 complex; LTBP3-ProTGFb1
T2 sequence (Q9NS15 44-1303 limits assumed, chain 1 of 2): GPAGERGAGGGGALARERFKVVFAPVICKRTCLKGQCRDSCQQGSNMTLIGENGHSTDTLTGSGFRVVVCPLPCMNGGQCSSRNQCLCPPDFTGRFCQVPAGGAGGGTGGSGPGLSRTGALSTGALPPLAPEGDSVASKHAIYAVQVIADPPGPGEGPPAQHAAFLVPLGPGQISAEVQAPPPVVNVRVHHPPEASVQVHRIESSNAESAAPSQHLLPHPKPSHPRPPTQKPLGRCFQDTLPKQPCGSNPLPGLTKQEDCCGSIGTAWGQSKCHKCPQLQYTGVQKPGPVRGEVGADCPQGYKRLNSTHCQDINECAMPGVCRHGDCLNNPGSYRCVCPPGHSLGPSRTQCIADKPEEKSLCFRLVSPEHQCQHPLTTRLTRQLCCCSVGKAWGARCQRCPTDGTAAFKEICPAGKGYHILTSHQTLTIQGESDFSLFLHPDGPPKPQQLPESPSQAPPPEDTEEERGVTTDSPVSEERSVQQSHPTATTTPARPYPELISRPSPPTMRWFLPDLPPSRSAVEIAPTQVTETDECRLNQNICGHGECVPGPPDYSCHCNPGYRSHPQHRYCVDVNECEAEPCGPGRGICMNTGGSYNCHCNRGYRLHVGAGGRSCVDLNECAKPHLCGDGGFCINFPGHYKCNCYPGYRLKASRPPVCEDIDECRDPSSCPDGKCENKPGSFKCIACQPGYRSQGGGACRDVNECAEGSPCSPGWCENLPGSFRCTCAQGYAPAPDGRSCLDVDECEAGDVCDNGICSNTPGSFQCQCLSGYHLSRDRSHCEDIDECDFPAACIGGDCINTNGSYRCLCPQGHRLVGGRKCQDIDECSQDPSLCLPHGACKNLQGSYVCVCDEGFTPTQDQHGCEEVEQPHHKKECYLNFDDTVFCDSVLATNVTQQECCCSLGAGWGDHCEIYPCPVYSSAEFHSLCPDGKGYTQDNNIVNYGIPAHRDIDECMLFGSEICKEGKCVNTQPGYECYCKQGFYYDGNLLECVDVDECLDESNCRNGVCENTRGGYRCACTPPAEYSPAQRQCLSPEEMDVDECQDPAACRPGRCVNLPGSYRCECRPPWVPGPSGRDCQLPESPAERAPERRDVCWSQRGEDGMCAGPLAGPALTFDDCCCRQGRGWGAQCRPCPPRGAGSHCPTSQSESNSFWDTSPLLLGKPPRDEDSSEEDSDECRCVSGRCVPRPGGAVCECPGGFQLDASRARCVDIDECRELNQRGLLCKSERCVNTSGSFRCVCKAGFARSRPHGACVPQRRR
T2 sequence (P01137 30-390 limits assumed, chain 2 of 2): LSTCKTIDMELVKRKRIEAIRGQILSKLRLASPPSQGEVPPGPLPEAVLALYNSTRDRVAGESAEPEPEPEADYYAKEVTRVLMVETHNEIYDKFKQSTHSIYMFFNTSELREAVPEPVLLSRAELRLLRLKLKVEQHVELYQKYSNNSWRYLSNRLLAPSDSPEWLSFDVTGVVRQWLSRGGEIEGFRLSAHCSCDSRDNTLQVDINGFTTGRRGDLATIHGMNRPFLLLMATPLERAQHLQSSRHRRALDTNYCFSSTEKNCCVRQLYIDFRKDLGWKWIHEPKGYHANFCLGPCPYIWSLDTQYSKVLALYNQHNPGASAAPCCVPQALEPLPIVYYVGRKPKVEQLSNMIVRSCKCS
Procedure: as §1, §2, §3

[3] = target: T3, hGARP-proTGFβ1 (human, UniProt Q14392 18-627; P01137 30-390, limits assumed); assay: SPR (Biacore), Fab
T3 construct: LLC as m1; Same id used for the cell-surface complex in reporter assays; also called human GARP-proTGFβ1 complex; GARP-ProTGFb1
Procedure: as §1, §2, §3

[4] = target: T4, mLTBP1-proTGFβ1 (mouse); assay: SPR (Biacore), Fab
T4 construct: Murine LLC; also called murine LTBP1-proTGFβ1 complex
T4 sequence (Q8CG19 339-1712): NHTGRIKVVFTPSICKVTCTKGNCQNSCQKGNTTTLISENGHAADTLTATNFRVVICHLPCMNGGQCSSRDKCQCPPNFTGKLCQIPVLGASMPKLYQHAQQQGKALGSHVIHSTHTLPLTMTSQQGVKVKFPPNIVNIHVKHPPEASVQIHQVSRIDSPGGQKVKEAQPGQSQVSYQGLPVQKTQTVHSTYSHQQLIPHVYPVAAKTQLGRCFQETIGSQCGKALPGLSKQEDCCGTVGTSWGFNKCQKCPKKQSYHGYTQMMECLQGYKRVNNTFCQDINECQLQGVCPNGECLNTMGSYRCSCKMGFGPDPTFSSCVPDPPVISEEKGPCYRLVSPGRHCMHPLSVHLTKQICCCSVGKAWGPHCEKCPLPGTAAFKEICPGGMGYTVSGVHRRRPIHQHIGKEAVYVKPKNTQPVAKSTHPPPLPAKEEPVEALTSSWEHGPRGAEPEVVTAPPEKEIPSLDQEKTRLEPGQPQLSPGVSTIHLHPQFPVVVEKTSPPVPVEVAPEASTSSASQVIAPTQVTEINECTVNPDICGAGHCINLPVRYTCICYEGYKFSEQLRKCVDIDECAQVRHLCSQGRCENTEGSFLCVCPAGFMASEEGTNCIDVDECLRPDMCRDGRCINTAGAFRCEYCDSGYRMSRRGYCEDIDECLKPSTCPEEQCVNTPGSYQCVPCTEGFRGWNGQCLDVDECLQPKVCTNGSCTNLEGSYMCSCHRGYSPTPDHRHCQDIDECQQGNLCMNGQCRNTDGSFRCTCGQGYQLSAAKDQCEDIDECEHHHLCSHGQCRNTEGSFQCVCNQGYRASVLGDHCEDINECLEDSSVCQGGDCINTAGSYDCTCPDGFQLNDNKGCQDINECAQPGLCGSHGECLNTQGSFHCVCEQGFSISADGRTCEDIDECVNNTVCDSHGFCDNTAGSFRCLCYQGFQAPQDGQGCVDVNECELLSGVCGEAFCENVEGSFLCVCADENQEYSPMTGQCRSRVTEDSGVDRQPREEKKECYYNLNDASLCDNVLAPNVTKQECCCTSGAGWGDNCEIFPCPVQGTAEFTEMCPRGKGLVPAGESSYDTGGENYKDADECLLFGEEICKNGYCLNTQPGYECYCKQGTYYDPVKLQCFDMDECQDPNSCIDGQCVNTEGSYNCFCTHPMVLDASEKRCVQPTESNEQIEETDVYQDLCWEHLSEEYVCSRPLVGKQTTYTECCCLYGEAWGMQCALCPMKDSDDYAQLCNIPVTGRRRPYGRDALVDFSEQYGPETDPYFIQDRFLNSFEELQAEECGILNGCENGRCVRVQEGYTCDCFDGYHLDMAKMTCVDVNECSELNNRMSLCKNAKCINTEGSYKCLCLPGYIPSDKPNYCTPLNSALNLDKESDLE
Procedure: as §1, §2, §3

[5] = target: T5, mLTBP3-proTGFβ1 (mouse); assay: SPR (Biacore), Fab
T5 construct: Murine LLC; also called murine LTBP3-proTGFβ1 complex
Procedure: as §1, §2, §3

[6] = target: T6, mGARP-proTGFβ1 (mouse); assay: SPR (Biacore), Fab
T6 construct: Murine LLC; also called murine GARP-proTGFβ1 complex
Procedure: as §1, §2, §3

[7] = target: T7, hLRRC33-proTGFβ1 (human, UniProt Q86YC3 19-650; P01137 30-390, limits assumed); assay: SPR (Biacore), Fab
T7 construct: LLC as m1; Same id used for the cell-surface complex in reporter assays; also called human LRRC33-proTGFβ1 complex; LRRC33-ProTGFb1
T7 sequence (Q86YC3 19-650 limits assumed, chain 1 of 2): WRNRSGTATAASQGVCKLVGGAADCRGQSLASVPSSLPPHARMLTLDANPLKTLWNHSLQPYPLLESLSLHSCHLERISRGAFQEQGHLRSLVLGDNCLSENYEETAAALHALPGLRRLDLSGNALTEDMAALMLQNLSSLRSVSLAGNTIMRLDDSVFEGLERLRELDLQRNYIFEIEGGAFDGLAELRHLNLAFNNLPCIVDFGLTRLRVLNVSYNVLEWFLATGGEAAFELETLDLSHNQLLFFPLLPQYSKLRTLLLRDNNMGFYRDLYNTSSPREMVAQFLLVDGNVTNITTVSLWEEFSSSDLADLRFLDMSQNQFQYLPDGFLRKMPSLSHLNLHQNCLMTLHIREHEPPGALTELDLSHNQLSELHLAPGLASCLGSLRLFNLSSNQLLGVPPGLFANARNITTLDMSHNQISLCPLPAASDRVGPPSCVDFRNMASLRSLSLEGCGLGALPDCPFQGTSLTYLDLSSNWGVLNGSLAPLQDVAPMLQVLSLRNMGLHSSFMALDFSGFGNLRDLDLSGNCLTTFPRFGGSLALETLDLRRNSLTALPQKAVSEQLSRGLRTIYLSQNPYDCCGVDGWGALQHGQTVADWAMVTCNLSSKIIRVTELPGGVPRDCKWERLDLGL
T7 sequence (P01137 30-390 limits assumed, chain 2 of 2): as the sequence (P01137 30-390 limits assumed, chain 2 of 2) above

[8] = target: T6, mGARP-proTGFβ1; assay: SPR (Biacore), Fab; affinity relative to Ref
[9] = target: T7, hLRRC33-proTGFβ1; assay: SPR (Biacore), Fab; affinity relative to Ref
[10] = target: mLRRC33-proTGFβ1 (murine, UniProt Q8BMT4 20-651); assay: SPR (Biacore), Fab; affinity relative to Ref
[11] = target: T1, hLTBP1-proTGFβ1; assay: SPR (Biacore 8K), biotinylated antigen captured, Fab as analyte
Procedure: as §3
(§4) The binding kinetics of antibody interactions with each of the antigen complexes, human LTBP1-ProTGFb1, human LTBP3-ProTGFb1, human GARP-ProTGFb1, and human LRRC33-ProTGFb1, were evaluated by surface plasmon resonance. Binding kinetics was evaluated by surface plasmon resonance using a BIACORE® 8K (GE) instrument. Biotinylated antigens were captured on a Biotin CAP chip and the Fab fragments of the antibodies were used as analytes. Sensorgrams for Fab binding at variable concentrations (0.6-10 nM) were globally fit to obtain the kinetic parameters.
(§5) Binding kinetics for the Fabs were evaluated against each of the four human antigens, LTBP1-ProTGFb1, LTBP3-ProTGFb1, GARP-ProTGFb1, and LRRC33-ProTGFb1. […] These experiments were repeated.

[12] = target: T2, hLTBP3-proTGFβ1; assay: as above
Procedure: as §3, §4, §5

[13] = target: T3, hGARP-proTGFβ1; assay: as above
Procedure: as §3, §4, §5

[14] = target: T7, hLRRC33-proTGFβ1; assay: as above
Procedure: as §3, §4, §5

T1 sequence (Q14766 347-1721 limits assumed, chain 1 of 2): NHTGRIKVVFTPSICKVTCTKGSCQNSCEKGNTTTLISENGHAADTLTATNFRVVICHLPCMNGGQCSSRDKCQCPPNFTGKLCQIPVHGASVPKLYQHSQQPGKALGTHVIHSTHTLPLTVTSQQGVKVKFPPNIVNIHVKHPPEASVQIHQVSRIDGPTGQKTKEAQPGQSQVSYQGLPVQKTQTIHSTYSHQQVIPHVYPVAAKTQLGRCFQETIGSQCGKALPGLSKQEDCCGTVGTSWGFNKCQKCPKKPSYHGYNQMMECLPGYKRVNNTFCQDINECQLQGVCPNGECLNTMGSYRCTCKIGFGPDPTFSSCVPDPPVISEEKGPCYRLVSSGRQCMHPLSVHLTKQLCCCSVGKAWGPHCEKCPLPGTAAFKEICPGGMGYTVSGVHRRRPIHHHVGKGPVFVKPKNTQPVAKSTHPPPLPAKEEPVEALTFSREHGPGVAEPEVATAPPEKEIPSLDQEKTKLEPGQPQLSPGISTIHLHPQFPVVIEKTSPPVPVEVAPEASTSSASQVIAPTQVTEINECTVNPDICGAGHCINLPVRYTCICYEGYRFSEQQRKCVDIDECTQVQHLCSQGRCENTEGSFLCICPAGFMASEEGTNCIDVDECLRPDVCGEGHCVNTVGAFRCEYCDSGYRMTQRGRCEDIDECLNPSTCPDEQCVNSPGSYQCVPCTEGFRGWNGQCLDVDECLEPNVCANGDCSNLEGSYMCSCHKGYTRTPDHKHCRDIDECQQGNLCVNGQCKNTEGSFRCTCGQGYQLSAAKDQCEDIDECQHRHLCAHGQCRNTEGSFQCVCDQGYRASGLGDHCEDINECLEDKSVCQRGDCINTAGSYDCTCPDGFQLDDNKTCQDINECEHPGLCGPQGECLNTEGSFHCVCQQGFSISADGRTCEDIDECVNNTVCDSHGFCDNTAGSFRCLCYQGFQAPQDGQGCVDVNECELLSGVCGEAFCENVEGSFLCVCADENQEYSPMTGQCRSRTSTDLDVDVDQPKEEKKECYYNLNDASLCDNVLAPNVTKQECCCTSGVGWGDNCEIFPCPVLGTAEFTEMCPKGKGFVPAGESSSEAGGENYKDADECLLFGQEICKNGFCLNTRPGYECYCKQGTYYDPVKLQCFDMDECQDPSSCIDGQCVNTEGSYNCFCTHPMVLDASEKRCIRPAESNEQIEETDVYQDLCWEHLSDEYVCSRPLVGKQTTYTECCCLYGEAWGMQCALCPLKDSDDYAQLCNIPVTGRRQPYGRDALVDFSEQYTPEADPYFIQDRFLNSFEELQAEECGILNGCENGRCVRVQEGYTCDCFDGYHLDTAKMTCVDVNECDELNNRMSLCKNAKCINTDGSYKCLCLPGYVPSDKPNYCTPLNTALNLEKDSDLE
T1 sequence (P01137 30-390 limits assumed, chain 2 of 2): as the sequence (P01137 30-390 limits assumed, chain 2 of 2) above

B1: Ab46 Fab (Fab, V domains shown)
VH: EVQLLESGGGLVQPGGSLRLSCAASGFTFADYAMTWVRQAPGKGLEWVSAISGSGAATYFADSVKGRFTISRDNSKNTLYLQMNSLRAEDTAVYYCARVSSGHWDYDYWGQGTLVTVSS
VL: DIQLTQSPSSLSASVGDRVTITCRASQSISSYLNWYQQKPGKAPKLLIYAASGLESGVPSRFSGSGSGTDFTLTISSLQPEDFATYYCQQTYGVPLTFGGGTKVEIK
notes: Fab fragment
Work on B1 yielded a Kd [1] of 0.0502 nM, a koff [1] of 8.81e-05 s⁻¹ and a kon [1] of 1.75e+06 M⁻¹ s⁻¹. For the same binder, the Kd [2] was 0.127 nM, the koff [2] was 0.000128 s⁻¹ and the kon [2] was 1e+06 M⁻¹ s⁻¹. For the same binder, the Kd [3] was 0.23 nM, the koff [3] was 0.000222 s⁻¹ and the kon [3] was 965000 M⁻¹ s⁻¹. For the same binder, the Kd [4] was 0.0534 nM, the koff [4] was 9.87e-05 s⁻¹ and the kon [4] was 1.85e+06 M⁻¹ s⁻¹. It also gave a Kd [5] of 0.0956 nM, a koff [5] of 0.000115 s⁻¹ and a kon [5] of 1.2e+06 M⁻¹ s⁻¹. For the same binder, the Kd [6] was 0.274 nM, the koff [6] was 0.000278 s⁻¹ and the kon [6] was 1.02e+06 M⁻¹ s⁻¹. For the same binder, the Kd [7] was 0.0841 nM, the koff [7] was 0.000128 s⁻¹ and the kon [7] was 1.52e+06 M⁻¹ s⁻¹. It also gave a Fold difference [8] of 69 fold, a Fold difference [9] of 118 fold and a Fold difference [10] of 95 fold. It also gave a Kd [11] of 0.035 nM, a koff [11] of 8.52e-05 s⁻¹ and a kon [11] of 2.44e+06 M⁻¹ s⁻¹. For the same binder, the Kd [12] was 0.109 nM, the koff [12] was 0.000195 s⁻¹ and the kon [12] was 1.78e+06 M⁻¹ s⁻¹. The Kd [13] was 0.19 nM, the koff [13] was 0.000359 s⁻¹ and the kon [13] was 1.89e+06 M⁻¹ s⁻¹. The Kd [14] was 0.119 nM, the koff [14] was 0.000162 s⁻¹ and the kon [14] was 1.36e+06 M⁻¹ s⁻¹.
